Source: the DeepSol protein solubility set

Test: soluble on expression in E. coli; label from the status in PepcDB or PDB records

| Sequence | soluble on expression in E. coli |
| --- | --- |
| MKILVYGINYSPELTGIGKYTGEMVEWLAAQGHEVRVITAPPYYPQWQVGENYSAWRYKREEGAATVWRCPLYVPKQPSTLKRLLHLGSFAVSSFFPLMAQRRWKPDRIIGVVPTLFCAPGMRLLAKLSGARTVLHIQDYEVDAMLGLGLAGKGKGGKVAQLATAFERSGLHNVDNVSTISRSMMNKAIEKGVAAENVIFFPNWSEIARFQHVADADVDALRNQLDLPDNKKIILYSGNIGEKQGLENVIEAADRLRDEPLIFAIVGQGGGKARLEKMAQQRGLRNMQFFPLQSYDALPALLKMGDCHLVVQKRGAADAVLPSKLTNILAVGGNAVITAEAYTELGQLCETFPGIAVCVEPESVEALVAGIRQALLLPKHNTVAREYAERTLDKENVLRQFINDIRG | soluble |
| MKVDVDEKTYIITMANDITKLYEENKRNLHYSITDPLTGAYNRKYLNDRFDIFIGDYIVLIDLDNFKMINDYEGHNVGDKILCDFVSLLNKELINSTSIIRLGGDEFIVIFSSDVDKNYVYSQLEALRENFLKVFSKYKYLSFSYGVDTVKRNLKLTIVELDKKMYKNKEKLEHHHHHH | not soluble |
| MEEYEFLVRVREAGGFDIEHLMDTKPSSCVIGCREFDNNDDYNAHIVLFARMGIHKYNMIQGTNLQLSCVEKYNYRSPRVYSAFYITLIAKDPDACNSLVTFQTRVVEEGFNMTKLSCNIARPKPGPQENAALPRHSVDLEPVKKSELLTHDWIRLYMELAFLKAHLRSPKNPNLSKLVIVMVAIETKDNMEPPSERLKARNAFFYIKYKYHANKGRGPKRRLGHKTPDRIAIVRRTLDKNTGYLTLEFPEPIL | soluble |
| MKKPSKCQSPGDSSISAKENDAQSNRSRDSKVAPKSEGLATGLDETEWKSRLTTPEIVLKEIRTLEGVSYYHGMVARDLVESKLTRCGDYLIRATDNRIMEFEFILSFFNKKRIHSHLTIKCDVEAGKWALGLLSVNQFSSVVDLTNFYKTNPIGAGFFLKRAISKGKYMIAHDRIKYSPKDDLLGTGNFSDVFRGKIELENQMVNVALKTTKLLDDTMDPTKNVKANKIKKEMIQEAEVMSQLRHANVTSFFGIAVDRLPILLIIEFCNGGNLQGHLIKFGDRIGTNERFLYLHDASAGLNYIHAMSITHRDIAARNCLISVNGFVKLSDFGMGLKVRRNESAKKVAEDDDGKENKEPKLPVRWMSPELVDTPDAFSKMSDMWSLGILAYEIFTNATKPFFNLDDTDVMQTVKSGKHPPLPLSMGPDLIRLLKDVLVAAPTQRTTADKFYNELHVLCTQKGALSLNGLTINQIRGISRKRVEHWEGYIPQVVICDKNGNERDWGDAPQEMLANVVWRGKK | not soluble |
| MKVYVVVPTYNESDNIVALMEKILAQRDNIHVLVVDDNSPDGTGEIAARMSSDNPRIHVLRRSGKMGLGSAYCDGFRVALRDGADFIIEMDADFSHDPATIPALLAATDKYDVVVGSRYLNGVSVVNWPIRRLMLSYFASVYTRFVTGLALRDCTSGFKCFRRRVIESVDLDTIRSDGYSFQIEMNYRCVERGFRVGEIPIIFIDRHAGSSKMSKKIVREAVLMVWKLKLGSLVKKLTRRGDRHAALEHHHHHH | soluble |
| MSLEVIKHDGPGRLGVIRLEPPVQTPALAGVDFTISPFNSYFNPKEYHDYDFNLAPSIPLSYYTPDEVIEKALKRIETVDYSKFNTFYFPALKRDKYYPRFVELIEENDFDAIYIGNSKVMIKDYRGFVATLRILREKFPNAVLITDLEPFFYPLAVYLGVDAFDVRSLKIYSYEGLGFTPFSPVIWDRPNDPIEFAREMIKIIKIAIQEGKLRYLVENFLPTVMNVGILRIADKEHGDYLEKYTPVHDKTVVFISEHSISRPEVFRWRKRIEERFEPPKGIDLLLIFPCSAKKPYSRSRSHMMYRKVMKEALGEKVHRVHELVVTSPYGVVPREWEWLAKYDIVVTGHWSESEVRFAGELLAQTIEKYPDIPIVAHVEGGYREAVKYAMELVNRDVIFTAVGSSTISKESLDKLKKTLKEFDLRDEGHHHHHH | not soluble |
| MSCMGAAVNIITTDGPAGRAGFTASAVCSVTDTPPTLLVCLNRGASVWPVFNENRTLCVNTLSAGQEPLSNLFGGKTPMEHRFAAARWQTGVTGCPQLEEALVSFDCRISQVVSVGTHDILFCAIEAIHRHTTPYGLVWFDRSYHALMRPAC | not soluble |
| MKSHKMMGGGISMHYITACLKIISDKDLNEIMKEFKKLEEETNKEEGCITFHAYPLEPSERKIMLWEIWENEEAVKIHFTKKHTIDVQKQELTEVEWLMKSNVND | soluble |
| SGTPPGLQTDCEALLSRFQETDSVRFEDFTELWRNMKFGTIFCGRMRNLEKNMFTKEALALAWRYFLPPYTFQIRVGALYLLYGLYNTQLCQPKQKIRVALKDWDEVLKFQQDLVNAQHFDAAYIFRKLRLDRAFHFTAMPKLLSYRMKKKIHRAEVTEEFKDPSDRVMKLITSDVLEEMLNVHDHYQNMKHVISVDKSKPDKALSLIKDDFFDNIKNIVLEHQQWHKDRKNPSLKSKTNDGEEKMEGNSQETERCERAESLAKIKSKAFSVVIQASKSRRHRQVKLDSSDSDSASGQGQVKATRKKEKKERLKPAGRKMSLRNKGNVQNIHKEDKPLSLSMPVITEEEENESLSGTEFTASKKRRKH | soluble |
| MAHHHHHHMPTFSDIMAARKALDGYVYETPIIESNALHGKTRHESVLLKCENLQRTGSYHVRGMTYRVIRAKEEDLGINNFVTHSSGNGGAALACAASNFQSTAHVVVPEDTNALITRSIRLYHGNFYYCKPDLKSRVEMEARLHSEFNKVAGKKRNQCMLVNPYSDEAIIAGHGTTGIEIMLQTDCSVDCVVIPVGGGALLAGAAIAVKGMKPHVGVFAAELAVPPDHYTVFKRGEVIEARKLKGDEKRPKGNKHGIRTELTDLANSYIDRYVDGVVHVSKEEMCYAFRYVYERCKLVVDTNAAIAVAAVLACPQELSNYRRICIVLSGGNVDLNDVPKIATARL | soluble |
| MLKSLQIPVEKLTSKGIKSAEDRITWVKREIGRLPEKEEVFNAILEALKEELGIEPYWGELTKEELELFEEKKDYFKSDEWIYHVKKAITGDEILYGIYRCPGGTFRVSAKVDPQTKVLQQVIINGDFFINPKRLIYDLEAYLKHTPVQEVEKRIREFFKEREFESVNLTVDDFVEA | soluble |
| MGSDKIHHHHHHMTNQTQSMALMVPQSSSSLEAYIHSAHNIPMLEANEEYELAKRLQETGDIQAAKQLIMSHLRFVIHVAKGYAGYGLPQADLIQEGNIGLMKAVKRFDPDVGVRLVSFAVHWIKAEIHEYVLKNWRIVKVATTKAQRKLFFNLRKAKKRLGWFSDEEVTMVAENLGVSKSDVTEMESRMAAQDPAFDLASDNDDDQDYAPVHYLEDHSSDIASQVENDNFEADNQTRLLAAIKTLDERSQHILQARWLDEEKTTLQELAATYQVSAERIRQLEKNAMNKLKGRMEM | not soluble |
| EWALFLDIDGTLVDIAEQPHDVRVAASLPQDLARLADRLGGALALVTGRRVDWIDAHFGPHLFPAAGLHGVERRRASGELDRAGLAPSLNALRKDLGRRTARMPGVLLEDKVAAVALHYRQAPEREPDVRAMMEMALKVMGDGWVLQHGKMVVELRPASANKGTALEAFLTEPPFAGRRPVAIGDDVTDEEMFRVVNACGGLSVRICETEAPTLARARLASPQALRDLVAELGA | not soluble |
| MGSDKIHHHHHHMENIVELINVTKTFKDFSINKMDLQVKKGFVTGFIGANGAGKSTTIKMMMNLLKPDDGEVKLFGMDYTTHEKAIKERIGFVYDGNVFFEGLNLKDIKHIVGPAYKRWDDTLFYQYVDKFELPLNKAIKTFSKGMQMKASLAIALSHHAELIIMDEPTAGLDPIFRRELLDILQELMIDNDRTIFFSTHITTDLDRIADYIAFMQGGNLVFNQSIHDIDENYALVKGGLDLLDKDTEKAFVHVRRASTGFEALTNNLSAVKNIFGDTVIIERATLEDIMYYMKGGVHYV | not soluble |
| MAASMARLWWPFLARQGLRSRGRCVCSQNPRRSFATEKRVRNLLYEHAREGYSELPYLDMESVCACPEKAARSLELRKGELRPADLPAIISTWQELRQLREQIRSLEAEKEAVAEAVRALLANQDSDQVQKDPQYQGLRARGREIRKQLTPLYPQETQLEEQLYQQALRLPNQTHPDTPVGDESQARVVRVVGEKPAFSFQPRGHLEIGEKLDIIRQKRLSHVSGHRSYYLRGAGALLQHGLVNFTLSKLVSRGFTPMTVPDLLRGAVFEGCGMTPNANPSQIYNIDPSRFEDLNLAGTAEVGLAGYFMDHSVAFRDLPVRMVCASTCYRAETDTGKEPWGLYRVHHFTKVEMFGVTGPGLEQSSQLLDEFLSLQVEILTELGLHFRVLDMPTQELGLPAYRKFDIEAWMPGRGRYGEVTSASNCTDFQSRRLYIMFETETGELQFAHTVNATACAVPRVLIALLESNQQKDGSVLVPAALQPYLGTDRITAPTHVPLQYIGPNQPQKPRLPGQSATR | soluble |
| MGSDKIHHHHHHMKNLYAKVIVGGSPISKSNFKLSNINGRAILPYNSGQYHDRYAIYEETIAYEARSQNPNTVISESIIAVLKVFYKSKKRHPDTNNITKSIFDGIEKSGIIVNDAQITRIIIEEYYDMINPRFELELFAESKFKMKYSILKKEEEDEPILYDPPSNKKRLITKTQKPKKSAQNGTITCSICGKKVTNDNIIWANKGTTALCKNCLKKSF | not soluble |
| MLTAATEVLAAADGPGSAESAWAWRDAPIATLVQRIQQLQNERAQAFRRLDQAHRQYLLSGQHYDFPSYRSVVHEVTQAFAAASREVLAVEAELAGPRAQPVLARHVRSLQELEQTRLATVALLQVMGTPGVSEQDPEKLHQLKIKVIKTMEAIGEVLQELRFDAESAE | soluble |
| MNTQYLQYVREQLMVATADLSGETKGQLLAWLENAQFDTKNYPRKKQRIWDEETESWITLNNPPIPGKQSLAKGSAIPLVKPVEYSTASWRRAVLSLDEHYKAWLLWNYSENTCWEHQVEITQWGWSAFAAQLDGKKMAGKTQERLRALIWLAAQDVKSELAGREVYQYKELAGLVGVSEKNWSETFTRHWLTMRAIFLRLDQASLLSVSESRSEQVAFNLYALN | not soluble |
| MSLKKILVQWKNGPSQIGRMYPLPVFDEHDIVQLCSEVKDILRIQPAVIQRKPGVIIVGDLHGNFLNFLQIFAIHGLPPNQNYIFLGNYINYGEFSLEVVIYLFSLYYLFPSNISLLRGSTEFYPSKGPRSLSSNIDTTYGPNSILKSVFLETFTYLPIACLIGNSVLCSRSSLVSRYSNLQEIFHETLPIPCVVDQSHLFLSGLANVIPSEEVLEEFLATNNLNFLIFGGKNAGDGVENMLDDRCYALASDAHMGYCGIINLVGNQPPFAIIFTPDSDLLRENAQMLREGHHHHHH | not soluble |
| MNALSGLQTHEDSTCCNRFCRPDERSASGNSTLLRFGGFFADQTYLQVTRLMQRIHYLHQRLVIDGFVRSEEDGGVFLAFGLEHHHHHH | not soluble |
| YIGSGASQPNRTDVVWMVPSWTCKNEYSIDVEKYGILQNEDQHFVGGKQFAIFYEHSFGKIPYFKAQNESDPKNGGLPQMGDLEAHLIQAEKDINETIPDENFNGIAVIDIEEFRPMWELSWGPFSVYKTESIRLTRQQHPYWSTKQIEWQAERDYEKACQKFFIETLRLGKRLRPNAKWGYYLFPKCNGDVGQKSDTDCSTLFQKFNDNLHWLWGESTALFPSIYLYPSQKQNPEYNFVNSGALITETKRIKRNYCPSCEIHVFTKIEYNPYYTPDDFYSKQNLASTLDLAIKMNANSVVIWSTSQSIGSRCGSLQTYVDNTLGPYLQLTDRNLD | not soluble |
